PMC4486954, “Highly homologous proteins exert opposite biological activities by using different interaction interfaces” (Scientific Reports, 2015)
No end group written: not given here.

B2: iASPP Ank-SH3 (domain or fragment, human, UniProt Q8WUF5 603-828, looked up)
chain: QSMEMRSVLRKAGSPRKARRARLNPLVLLLDAALTGELEVVQQAVKEMNDPSQPNEEGITALHNAICGANYSIVDFLITAGANVNSPDSHGWTPLHCAASCNDTVICMALVQHGAAIFATTLSDGATAFEKCDPYREGYADCATYLADVEQSMGLMNSGAVYALWDYSAEFGDELSFREGESVTVLRRDGPEETDWWWAALHGQEGYVPRNYFGLFPRVKPQRSKV
notes: iASPP (human), four ankyrin repeats and SH3 domain, residues 603-828, Swiss-Prot Q8WUF5; also called iASPP Ank-SH3 603-828; cleaved iASPP Ank-SH3; source: E. coli HMS 174, purified (Nickel Sepharose, TEV cleavage, second Nickel column, size exclusion chromatography); not shown: HLT (His tag, lipoyl domain, TEV protease cleavage site), N-terminal, cleaved

Assays:
[1] = target: iASPP 616-623 peptide 616-623 (Homo sapiens) (UniProt Q8WUF5); assay: ITC; settings: cited from earlier work
iASPP Ank-SH3 [2] = target: T1, iASPP Ank-SH3 (Homo sapiens, UniProt Q8WUF5); assay: Fluorescence anisotropy binding of fluorescein-labeled iASPP Pro derived peptides to iASPP Ank-SH3; settings: 250 μM iASPP Ank-SH3 titrated into 100 nM fluorescein-labeled peptide, 10 °C, 20 mM Hepes pH 7.3, ionic strength 50 mM
T1 construct: (2) iASPP Ank-SH3 603-828; HLT tag (His tag + lipoyl domain + TEV site) (N, cleaved yes); made in house; host or cells: E. coli HMS 174 (Novagen)
T1 sequence (Q8WUF5 603-828): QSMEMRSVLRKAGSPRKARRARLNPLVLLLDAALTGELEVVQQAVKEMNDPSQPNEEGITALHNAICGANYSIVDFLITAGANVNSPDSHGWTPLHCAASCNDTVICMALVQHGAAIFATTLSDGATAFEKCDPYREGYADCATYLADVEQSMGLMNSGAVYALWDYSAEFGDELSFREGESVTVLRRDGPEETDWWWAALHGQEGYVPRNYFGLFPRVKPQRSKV
Experimental: Binding of the iASPP Pro-derived peptides to iASPP Ank-SH3 was measured by fluorescence anisotropy using a PerkinElmer Life Sciences LS-50b spectrofluorimeter equipped with a Hamilton microlab M dispenser. Titration of iASPP Ank-SH3 into iASPP Pro derived fluorescein-labeled (FL) peptides was performed at 10 °C in 20 mM Hepes buffer, pH 7.3, 43 mM NaCl (total ionic strength = 50 mM), 10% glycerol and 5 mM β-mercaptoethanol. The excitation wavelength was set at 480 nm and the emission measured at 530 nm. The labeled peptide, dissolved in 1 ml buffer to a final concentration of 100 nM, was placed in the cuvette. 250 μM iASPP Ank-SH3 was placed in the dispenser and aliquots of 10–20 μl were added at 1.5 min intervals. The solution was then stirred for 30 sec, and the fluorescence and anisotropy were measured. Data were analyzed using the program Origin8 (OriginLab) and were fit to 1:1 binding model:
[drawing 1] (R- measured fluorescence anisotropy, R0- anisotropy value corresponding to the free peptide, ∆R- amplitude of the fluorescence anisotropy change, [Protein]- protein concentration, Kd- dissociation constant).

HLT-iASPP Ank-SH3 = assay: Peptide array screening: HLT-iASPP Ank-SH3 binding to array of iASPP Pro derived peptides; design: species or system human; settings: CelluSpots array, N-acetylated 15-residue peptides on cellulose; 5 μM protein, 4 °C overnight; IS = 150 mM, pH 7.0; anti His HRP, chemiluminescence
Experimental: The CelluSpots^TM peptide micro-arrays were synthesized by INTAVIS Bioanalytical Instruments AG, Köln, Germany. The 15 residue peptides were acetylated at their N-termini and attached to a cellulose membrane via their C termini through an amide bond. For screening the binding of the array to HLT-iASPP Ank-SH3 the array was first washed for 4 h at room temperature with 50 mM Tris-HCl pH = 8 at an ionic strength (IS) of 150 mM adjusted by NaCl, 0.05% Tween20 and 2.5% (W/V) skimmed milk (buffer D) for blocking unspecific binding. HLT-iASPP Ank-SH3 was dissolved in 20 mM Phosphate buffer pH = 7.0 IS = 150 mM, 5 mM βME, 10% glycerol and 0.02% NaN3 and 2.5% skimmed milk. 5 ml of 5 μM of the protein were incubated with the arrays at 4 °C with shaking overnight. After three washes with TBST, the array was incubated with anti His HRP conjugated antibody at room temperature for 1 hour. The antibody was dissolved in buffer D. Then the array was washed again three times with TBST. Immunodetection was performed using chemiluminiscence (ECL reagents). Peptide array screening for binding HLT-iASPP Pro was also preformed as above with change of the proteins buffer. HLT-iASPP Pro was dissolved in 50 mM Phosphate buffer pH = 7.0, 10% glycerol, 0.02% NaN3, 0.001% Tween 20, IS = 150 mM and 2.5% skimmed milk.

iASPP Ank-SH3 [3] = target: T1, iASPP Ank-SH3; settings: cited from earlier work
Text: iASPP 1-478 and specifically iASPP 1-240 but not iASPP 249-482 were previously shown to bind iASPP Ank-SH3 in a pull down assay. We further mapped this interaction using peptide arrays and identified the exact regions in iASPP Pro that bind iASPP Ank-SH3.

iASPP Ank-SH3 [4] = target: B2; assay: fluorescence polarisation; fluorescence anisotropy; 250 uM iASPP Ank-SH3 titrated into 100 nM fluorescein-labeled peptide; 10 °C; 20 mM Hepes pH 7.3, 43 mM NaCl (ionic strength 50 mM), 10% glycerol, 5 mM β-mercaptoethanol; fit to a 1:1 model; settings: both partners purified
HLT-iASPP Pro = target: T2, HLT-iASPP Pro (human, UniProt Q8WUF5 1-602); assay: pull-down; Nickel-NTA beads loaded with HLT-iASPP Pro (1.7 uM), HLT (31 uM) or buffer, 1 h, 4 °C, 40 mM imidazole; then iASPP Ank-SH3 (80 ul of 80 uM, diluted in 1 ml 25 mM phosphate pH 7.0, 10% glycerol, 25 mM imidazole, 100 mM NaCl), 2 h, 4 °C; three washes; eluted by boiling in SDS; Coomassie-stained SDS-PAGE; settings: both partners purified
T2 construct: iASPP (human), proline rich (Pro) domain, residues 1-602 of the 828-residue protein, Swiss-Prot Q8WUF5; Cloned EcoRI/NotI into pHis parallel 2HLT; calculated Mw with tag 75.9 kDa; also called iASPP Pro 1-602; iASPP 1-602; source: E. coli Rosetta2, purified (Nickel Sepharose, size exclusion chromatography); not shown: HLT (His tag, lipoyl domain, TEV protease cleavage site), N-terminal, kept
T2 sequence (looked up): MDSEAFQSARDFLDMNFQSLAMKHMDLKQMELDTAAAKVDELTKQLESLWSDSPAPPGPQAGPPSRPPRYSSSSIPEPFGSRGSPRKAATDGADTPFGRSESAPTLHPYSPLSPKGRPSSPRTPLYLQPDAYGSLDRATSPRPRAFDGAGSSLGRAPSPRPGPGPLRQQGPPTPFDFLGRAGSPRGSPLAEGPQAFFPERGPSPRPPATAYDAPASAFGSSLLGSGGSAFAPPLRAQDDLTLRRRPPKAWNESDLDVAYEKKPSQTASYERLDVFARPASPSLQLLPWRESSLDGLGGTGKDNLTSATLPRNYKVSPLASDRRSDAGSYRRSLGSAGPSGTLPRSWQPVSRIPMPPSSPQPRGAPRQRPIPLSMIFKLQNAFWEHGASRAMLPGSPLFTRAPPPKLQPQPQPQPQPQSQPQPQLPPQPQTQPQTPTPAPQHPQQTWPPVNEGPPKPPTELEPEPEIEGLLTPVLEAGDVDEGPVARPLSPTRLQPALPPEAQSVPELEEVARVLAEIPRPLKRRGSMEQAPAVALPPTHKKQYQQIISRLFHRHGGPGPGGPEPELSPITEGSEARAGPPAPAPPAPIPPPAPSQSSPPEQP

iASPP Ank-SH3 (from UniProt Q8WUF5)
Kd [1]: 45 µM

iASPP 83-90: iASPP Pro derived peptide that includes the iASPP phosphorylation site S84 (GSPRKAAT; UniProt Q8WUF5 83-90, looked up, fragment)
binding to iASPP Ank-SH3 (in words) (iASPP Ank-SH3 [2]): did not bind
binding of HLT-iASPP Ank-SH3 to the peptide in the array (HLT-iASPP Ank-SH3): did not bind

SMEMRSVLRKAGSPR [iASPP 604-618, array peptide, iASPP residues 604-618]
binding of HLT-iASPP Ank-SH3 to the peptide in the array (HLT-iASPP Ank-SH3): bound

B1: iASPP 1-240: iASPP fragment 1-240 of a previous pull down assay (protein, UniProt Q8WUF5 1-240, looked up, fragment)
chain: MDSEAFQSARDFLDMNFQSLAMKHMDLKQMELDTAAAKVDELTKQLESLWSDSPAPPGPQAGPPSRPPRYSSSSIPEPFGSRGSPRKAATDGADTPFGRSESAPTLHPYSPLSPKGRPSSPRTPLYLQPDAYGSLDRATSPRPRAFDGAGSSLGRAPSPRPGPGPLRQQGPPTPFDFLGRAGSPRGSPLAEGPQAFFPERGPSPRPPATAYDAPASAFGSSLLGSGGSAFAPPLRAQDDL
binding to iASPP Ank-SH3 in pull down assay (iASPP Ank-SH3 [3]): bind

{5(6)‑carboxyfluorescein}-QAGPPSRPPRYSSSS [fluorescein labeled iASPP 60-74]
Kd (iASPP Ank-SH3 [4]): 35 ± 2 µM

{5(6)‑carboxyfluorescein}-KKQYQQIISRLFHRHGGPGPGGP [fluorescein labeled iASPP 540-562]
Kd (iASPP Ank-SH3 [4]): 34 ± 2 µM

B2
binding result (HLT-iASPP Pro): binds

B3: iASPP 249-482: iASPP fragment 249-482 of a previous pull down assay (protein, UniProt Q8WUF5 249-482, looked up, fragment)
chain: AWNESDLDVAYEKKPSQTASYERLDVFARPASPSLQLLPWRESSLDGLGGTGKDNLTSATLPRNYKVSPLASDRRSDAGSYRRSLGSAGPSGTLPRSWQPVSRIPMPPSSPQPRGAPRQRPIPLSMIFKLQNAFWEHGASRAMLPGSPLFTRAPPPKLQPQPQPQPQPQSQPQPQLPPQPQTQPQTPTPAPQHPQQTWPPVNEGPPKPPTELEPEPEIEGLLTPVLEAGDVDEG
binding to iASPP Ank-SH3 in pull down assay (iASPP Ank-SH3 [3]): not
